From the supplement of paper PMC9112550, “Optimization of the antimicrobial peptide Bac7 by deep mutational scanning” (BMC Biology, 2022)

System: Escherichia coli TOP10
Experiment: shrunken log2 fold change of peptide-encoding DNA abundance (4.5 h post-induction vs induction); higher = less antimicrobial activity (less host growth inhibition)
Details: time post-induction: 4.5 h; library: site-saturation at positions 5, 18, 19, 20
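Further: peptides expressed intracellularly from a pBAD plasmid library in pooled LB shake-flask culture, induced with 0.3% L-arabinose, DNA abundance read by NGS, three biological replicates, DESeq2 with apeglm shrinkage.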

Row | Sequence | shrunken log2 fold change
1 | RRIRSRPPRLPRPRPRPELPPRP | 0.0311
2 | RRIRSRPPRLPRPRPRPNQWPRP | 0.0342
3 | RRIRGRPPRLPRPRPRPKVLPRP | 0.177
4 | RRIRNRPPRLPRPRPRPINYPRP | -0.262
5 | RRIRSRPPRLPRPRPRPCRVPRP | 0.11
6 | RRIRDRPPRLPRPRPRPIIPPRP | -0.644
7 | RRIRARPPRLPRPRPRPQDQPRP | 0.302
8 | RRIRNRPPRLPRPRPRPCTLPRP | -0.191
9 | RRIRNRPPRLPRPRPRPVHYPRP | -0.124
10 | RRIRHRPPRLPRPRPRPGNWPRP | -0.0354
11 | RRIRFRPPRLPRPRPRPHMYPRP | -1.28
12 | RRIRLRPPRLPRPRPRPVMTPRP | -0.148
13 | RRIRVRPPRLPRPRPRPCWIPRP | -0.0862
14 | RRIRLRPPRLPRPRPRPQKFPRP | 0.0452
15 | RRIRKRPPRLPRPRPRPKFRPRP | 0.00803
16 | RRIRQRPPRLPRPRPRPWAYPRP | -0.11
17 | RRIRNRPPRLPRPRPRPISGPRP | -0.0579
18 | RRIRHRPPRLPRPRPRPRFKPRP | -0.153
19 | RRIRQRPPRLPRPRPRPQIPPRP | -0.214
20 | RRIRSRPPRLPRPRPRPTCPPRP | 0.0454
21 | RRIRGRPPRLPRPRPRPLFAPRP | 1.36
22 | RRIRCRPPRLPRPRPRPGHYPRP | -0.0646
23 | RRIRIRPPRLPRPRPRPYMVPRP | -0.377
24 | RRIRYRPPRLPRPRPRPNEKPRP | -0.0256
25 | RRIRCRPPRLPRPRPRPCYCPRP | -0.399

Row | Sequence | shrunken log2 fold change
26 | RRIRRRPPRLPRPRPRPSPCPRP | 0.155
27 | RRIRARPPRLPRPRPRPWDRPRP | 0.0339
28 | RRIRTRPPRLPRPRPRPMHCPRP | -0.235
29 | RRIRERPPRLPRPRPRPTAIPRP | 0.32
30 | RRIRVRPPRLPRPRPRPVWRPRP | 0.309
31 | RRIRFRPPRLPRPRPRPHVNPRP | -0.297
32 | RRIRARPPRLPRPRPRPSNNPRP | -0.376
33 | RRIRGRPPRLPRPRPRPHVMPRP | 0.0731
34 | RRIRFRPPRLPRPRPRPRNEPRP | -0.0379
35 | RRIRTRPPRLPRPRPRPKAQPRP | -0.0875
36 | RRIRLRPPRLPRPRPRPSNGPRP | -0.00256
37 | RRIRPRPPRLPRPRPRPQKFPRP | -0.178
38 | RRIRMRPPRLPRPRPRPYSPPRP | -0.199
39 | RRIRHRPPRLPRPRPRPYVFPRP | -0.508
40 | RRIRPRPPRLPRPRPRPAYKPRP | -0.302
41 | RRIRTRPPRLPRPRPRPACQPRP | 0.0771
42 | RRIRIRPPRLPRPRPRPEGEPRP | 0.134
43 | RRIRERPPRLPRPRPRPMVFPRP | 0.0276
44 | RRIRTRPPRLPRPRPRPLKNPRP | -0.397
45 | RRIRTRPPRLPRPRPRPHNQPRP | -0.369
46 | RRIRSRPPRLPRPRPRPIFDPRP | -0.0516
47 | RRIRSRPPRLPRPRPRPAFEPRP | 0.0595
48 | RRIRTRPPRLPRPRPRPSEKPRP | -0.0354
49 | RRIRERPPRLPRPRPRPPQAPRP | 0.154
50 | RRIRIRPPRLPRPRPRPGIRPRP | -0.0416

Row | Sequence | shrunken log2 fold change
51 | RRIRIRPPRLPRPRPRPICDPRP | -0.412
52 | RRIRNRPPRLPRPRPRPFNQPRP | -0.408
53 | RRIRWRPPRLPRPRPRPNMHPRP | -0.00977
54 | RRIRHRPPRLPRPRPRPVLEPRP | 0.338
55 | RRIRCRPPRLPRPRPRPRAQPRP | 0.4
56 | RRIRVRPPRLPRPRPRPQTLPRP | -0.372
57 | RRIRIRPPRLPRPRPRPLFNPRP | -1.02
58 | RRIRDRPPRLPRPRPRPRLMPRP | 0.163
59 | RRIRVRPPRLPRPRPRPKTRPRP | 0.63
60 | RRIRDRPPRLPRPRPRPASGPRP | 0.15
61 | RRIRSRPPRLPRPRPRPSDHPRP | -0.555
62 | RRIRARPPRLPRPRPRPTLFPRP | 0.663
63 | RRIRARPPRLPRPRPRPCPIPRP | -0.244
64 | RRIRNRPPRLPRPRPRPKSRPRP | -0.0139
65 | RRIRFRPPRLPRPRPRPHQRPRP | -0.183
66 | RRIRFRPPRLPRPRPRPYVFPRP | -0.408
67 | RRIRHRPPRLPRPRPRPWSIPRP | 0.0612
68 | RRIRRRPPRLPRPRPRPFQTPRP | 0.0413
69 | RRIRVRPPRLPRPRPRPDLIPRP | 0.0639
70 | RRIRKRPPRLPRPRPRPPLRPRP | 0.708
71 | RRIRQRPPRLPRPRPRPIWLPRP | 0.66
72 | RRIRFRPPRLPRPRPRPERIPRP | -0.352
73 | RRIRIRPPRLPRPRPRPTHMPRP | 0.578
74 | RRIRVRPPRLPRPRPRPRPIPRP | 0.611
75 | RRIRLRPPRLPRPRPRPLSAPRP | 0.0846

Row | Sequence | shrunken log2 fold change
76 | RRIRARPPRLPRPRPRPSKIPRP | -0.265
77 | RRIRIRPPRLPRPRPRPYTKPRP | -0.203
78 | RRIRVRPPRLPRPRPRPMDLPRP | 0.156
79 | RRIRKRPPRLPRPRPRPLMWPRP | 0.284
80 | RRIRKRPPRLPRPRPRPLSQPRP | 0.028
81 | RRIRYRPPRLPRPRPRPSIGPRP | -0.0122
82 | RRIRCRPPRLPRPRPRPGFLPRP | -0.245
83 | RRIRDRPPRLPRPRPRPYESPRP | 0.00683
84 | RRIRCRPPRLPRPRPRPRLKPRP | 0.0782
85 | RRIRKRPPRLPRPRPRPAAVPRP | 0.188
86 | RRIRTRPPRLPRPRPRPKCSPRP | -0.0669
87 | RRIRNRPPRLPRPRPRPEFIPRP | -0.304
88 | RRIRTRPPRLPRPRPRPCGTPRP | -0.0194
89 | RRIRCRPPRLPRPRPRPCYLPRP | -0.684
90 | RRIRKRPPRLPRPRPRPKWIPRP | -0.111
91 | RRIRQRPPRLPRPRPRPHPDPRP | -0.0624
92 | RRIRVRPPRLPRPRPRPLYWPRP | -0.329
93 | RRIRSRPPRLPRPRPRPESQPRP | 0.0194
94 | RRIRQRPPRLPRPRPRPHPEPRP | 0.0615
95 | RRIRPRPPRLPRPRPRPPWQPRP | 0.443
96 | RRIRDRPPRLPRPRPRPYICPRP | -0.148
97 | RRIRKRPPRLPRPRPRPGPIPRP | 0.204
98 | RRIRQRPPRLPRPRPRPGRAPRP | 0.474
99 | RRIRMRPPRLPRPRPRPFTLPRP | -0.0107
100 | RRIRMRPPRLPRPRPRPVCAPRP | 0.698

Row | Sequence | shrunken log2 fold change
101 | RRIRKRPPRLPRPRPRPMLTPRP | 0.189
102 | RRIRCRPPRLPRPRPRPCEEPRP | 0.207
103 | RRIRGRPPRLPRPRPRPHPEPRP | 0.513
104 | RRIRPRPPRLPRPRPRPRSNPRP | -0.247
105 | RRIRKRPPRLPRPRPRPVTYPRP | -0.0821
106 | RRIRMRPPRLPRPRPRPVNFPRP | -0.114
107 | RRIRFRPPRLPRPRPRPQHTPRP | -0.164
108 | RRIRYRPPRLPRPRPRPTHRPRP | -0.1
109 | RRIRHRPPRLPRPRPRPMFTPRP | -0.102
110 | RRIRSRPPRLPRPRPRPNDGPRP | -0.0933
111 | RRIRVRPPRLPRPRPRPVKVPRP | 0.0348
112 | RRIRVRPPRLPRPRPRPAPQPRP | 0.618
113 | RRIRARPPRLPRPRPRPRAAPRP | 0.826
114 | RRIRFRPPRLPRPRPRPWEDPRP | 0.0682
115 | RRIRTRPPRLPRPRPRPLHYPRP | -0.592
116 | RRIRFRPPRLPRPRPRPWCAPRP | 0.185
117 | RRIRFRPPRLPRPRPRPIHPPRP | -0.385
118 | RRIRTRPPRLPRPRPRPDACPRP | -0.0191
119 | RRIRIRPPRLPRPRPRPCGWPRP | 0.0831
120 | RRIRIRPPRLPRPRPRPWDKPRP | -0.0749
121 | RRIRYRPPRLPRPRPRPPSMPRP | -0.692
122 | RRIRPRPPRLPRPRPRPGPAPRP | 0.51
123 | RRIRWRPPRLPRPRPRPTRWPRP | 0.573
124 | RRIRARPPRLPRPRPRPSPPPRP | 0.67
125 | RRIRLRPPRLPRPRPRPDTNPRP | -0.103
